Data set [1] has as its system endothelial cell monolayers (in vitro blood-brain barrier model).
Procedure: (§1) The permeability coefficient (Pe) was calculated as:
(§2) At the end of the experiments, amounts of the radiotracers in the basolateral compartment were measured in a liquid scintillation counter. The permeability coefficient (Pe) for sucrose was calculated as previously described (Dehouck, M. P., Jolliet-Riant, P., Brée, F., Fruchart, J. C., Cecchelli, R., Tillement, J. P., J. Neurochem. 58:1790-1797, 1992) using filters coated or non-coated with EC.
(§3) The transport of Angio-pep1 from the apical-to-basolateral side of inserts covered with or without endothelial cell monolayers was measured. The results are expressed as the clearance of Angio-pep1 as a function of time. The slopes correspond to the permeability of the peptide through the filter alone (Psf) and to the total permeability of the endothelial cell monolayers (Pst).
(§4) The permeability coefficients for Angio-pep1, aprotinin, leptin and transferrin were determined using the in vitro blood-brain barrier model. The permeability coefficient (Pe) was calculated as described above.
The next data set is described as follows: in vitro. The following applies: bovine.
In data set [2] the test system is bovine brain capillary endothelial cells (BBCECs).
Procedure: (§5) The model consists of a co-culture of bovine brain capillary endothelial cells and rat glial cells.
(§6) The in vitro model of BBB was established by using a co-culture of BBCECs and astrocytes. Prior to cell culture, plate inserts (Millicell-PC 3.0 μM; 30-mm diameter) were coated on the upper side with rat tail collagen. They were then set in six-well microplates containing the astrocytes and BBCECs were plated on the upper side of the filters in 2 mL of co-culture medium. This BBCEC medium was changed three times a week. Under these conditions, differentiated BBCECs formed a confluent monolayer 7 days later. Experiments were performed between 5 and 7 days after confluence was reached. The permeability coefficient for sucrose was measured to verify the endothelial permeability.
(§7) Briefly, after removing the meninges, the brain tissue was forced gently through a 82 μm nylon sieve. Astrocytes were plated on six-well microplates at a concentration of 1.2×10^5 cells/mL in 2 mL of optimal culture medium (DMEM) supplemented with 10% heat inactivated fetal bovine serum. The medium was changed twice a week.
(§8) Bovine brain capillary endothelial cells (BBCECs) were obtained from Cellial Technologies. The cells were cultured in the presence of DMEM medium supplemented with 10% (v/v) horse serum and 10% heat-inactivated calf serum, 2 mM of glutamine, 50 μg/mL of gentamycin, and 1 ng/mL of basic fibroblast growth factor, added every other day.
(§9) One insert covered with BBCECs was set into a six-well microplate with 2 mL of Ringer-Hepes and was pre-incubated for 2 h at 37° C. [^125I]-aprotinin, [^125I]-p97, [^125I]-ceruloplasmin or [^125I]-transferrin (250 nM final concentration) was added to the upper side of the filter covered with cells. At various times, the insert was transferred to another well to avoid a possible reendocytosis of [^125I]-proteins by the abluminal side of the BBCECs. At the end of experiment, [^125I]-proteins were assessed in 500 μL of the lower chamber of well by TCA precipitation.
(§10) Aprotinin, p97 and bovine holo-transferrin were iodinated with standard procedures using iodo-beads from Sigma™. Bovine holo-transferrin was diluted in 0.1M phosphate buffer, pH 6.5 (PB). P97 obtained from Synapse Technologies in neutralized citrate at pH 7.0 was dialyzed against this PB. Two iodo-beads were used for each protein. These beads were washed twice with 3 mL of PB on a Whatman™ filter and resuspended in 60 μL of PB. ^125I (1 mCi) from Amersham-Pharmacia biotech was added to the bead suspension for 5 minutes at room temperature. The iodination for each protein was initiated by the addition of 100 μg (80-100 μL).
Data set [3] concerns endothelial cell monolayers (in vitro blood-brain barrier model). The data set can be described thus: Permeability coefficient (Pe) of proteins in the in vitro blood-brain barrier model. The following applies: for Ratios (permeability coefficients): Pe of Angio-pep1 divided by Pe of the named protein; for Permeability coefficient (Pe): in vitro blood-brain barrier model.
Procedure: as §1, §2, §3, §4
The test system of data set [4] is bovine brain capillary endothelial cells (BBCECs). The data set can be described thus: Transcytosis of 125I-proteins across BBCEC monolayers (in vitro blood-brain barrier model). The following applies: for Transcytosis: across in vitro BBB model; for Ratios Aprotinin/Protein: aprotinin transcytosis divided by that of the named protein.
Procedure: as §5, §6, §7, §8, §9, §10
For another data set, the system named is BBCEC monolayers. In words: SDS-PAGE/autoradiography of protein integrity after transcytosis across BBCEC monolayers. The data set is classed as in vitro ADME, bovine. The following applies: 250 nM, SDS-PAGE, FIG. 4. The source says: At each time point, filters were put in the next well of the 6-well plates. At the end of the experiment, aliquots were taken in each well and submitted to SDS-PAGE. Gels were then submitted to detection by autoradiography. The results, presented in FIG. 4, indicate that aprotinin integrity is not affected by its transcytosis across BBCEC monolayers.

In a further data set the test system is mouse brain. In words: In situ mouse brain perfusion (apparent volume of distribution). Conditions: 10 min perfusion.

“Also recorded” adds a separate entry of the source. Like-named read-outs stand apart in the source and are kept apart here. Where a SMILES comes first, the peptide text is derived from it.

Procedure for mouse brain: The uptake of [^125I]-aprotinin to the luminal side of mouse brain capillaries was measured using the in situ brain perfusion method adapted in our laboratory for the study of drug uptake in the mouse brain (Dagenais et al., 2000, J. Cereb. Blood Flow Metab. 20(2):381-386). Briefly, the right common carotid of ketamine/xylazine (140/8 mg/kg i.p.) anesthetized mice was exposed and ligated at the level of the bifurcation of the common carotid, rostral to the occipital artery. The common carotid was then catheterized rostrally with polyethylene tubing (0.30 mm i.d.×0.70 mm o.d.) filled with heparin (25 U/ml) and mounted on a 26-gauge needle. The syringe containing the perfusion fluid (10 nM of [^125I]-aprotinin in Krebs/bicarbonate buffer at a pH7.4 gassed with 95% O2 and 5% CO2) was placed in an infusion pump (Harvard pump PHD 2000; Harvard Apparatus) and connected to the catheter. […]
Aprotinin uptake was expressed as the volume of distribution (Vd) from the following equation: Vd=Q*br/C*pf where Q*br is the calculated quantity of [^125I]-aprotinin per gram of right brain hemisphere and C*pf is the labeled tracer concentration measured in the perfusate.
The brain apparent volume of distribution was measured for [^125I]-transferrin, [^125I]-aprotinin and [^125I]-Angio-pep1. […]

The term Papp A→B denotes how fast a substance crosses the layer from the apical side. High values mean ready permeation, low ones poor permeation. Take `C[C@@H](O)[C@H](N)C(=O)N[C@@H](Cc1ccccc1)C(=O)N[C@@H](Cc1ccccc1)C(=O)N[C@@H](Cc1ccc(O)cc1)C(=O)NCC(=O)NCC(=O)N[C@@H](CS)C(=O)N[C@@H](CCCNC(=N)N)C(=O)NCC(=O)N[C@@H](CCCCN)C(=O)N[C@@H](CCCNC(=N)N)C(=O)N[C@@H](CC(N)=O)C(=O)N[C@@H](CC(N)=O)C(=O)N[C@@H](Cc1ccccc1)C(=O)N[C@@H](CCCCN)C(=O)N[C@H](C(=O)N[C@@H](CCC(=O)O)C(=O)N[C@@H](CCC(=O)O)C(=O)N[C@@H](Cc1ccc(O)cc1)C(=O)O)[C@@H](C)O` [Angio-pep1] (H-TFFYGGCRGKRNNFKTEEY-OH; N-terminus and C-terminus assumed): the “Ratios (permeability coefficients)” value in data set [1] was found to be 1. Also, the “Permeability coefficient (Pe)” value in data set [1] (bovine) came to 20 ×10⁻⁶ cm/s. For the same compound, in the data set “in vitro”, the Papp A→B is 20 ×10⁻⁶ cm/s. For the same compound, the “transcytosis capacity compared with other proteins” value in data set [2] was “higher than that of other proteins including aprotinin, leptin and transferrin”.

In the case of “Leptin: comparison protein for permeability coefficient [reference compound]”, in data set [3], the “Ratios (permeability coefficients)” value came out at 21 and the “Permeability coefficient (Pe)” value was 0.917 ×10⁻⁶ cm/s.

On to “Streptavidin: comparison protein in transcytosis experiment [reference compound]”, for which, in data set [4], the Transcytosis is reported as 0.09 pmol/h/cm^2 and the “Ratios Aprotinin/Protein” value was found to be 30.

In the case of aprotinin, the “integrity of the protein after transcytosis across BBCEC monolayers” value with BBCEC monolayers is listed as “not affected”. In addition, in data set [4], the Transcytosis is given as 2.7 pmol/h/cm^2 and the “Ratios Aprotinin/Protein” value was 1. Further, the “transcytosis capacity compared with other proteins” value in data set [4] (in vitro blood-brain barrier model) was “higher transcytosis capacity than transferrin, p97 or ceruloplasmin”. Further, in data set [4] (versus other tested proteins incl. transferrin, ceruloplasmin), the “transendothelial transport / transcytosis of aprotinin higher than that of other proteins” value is listed as 10-50 fold. Further, in the data set on mouse brain, the “brain uptake / apparent volume of distribution” value is listed as “higher brain uptake; also recorded: higher than that of transferrin”. Further, in data set [3], the “Ratios (permeability coefficients)” value came to 7.5 and the “Permeability coefficient (Pe)” value turned out to be 2.67 ×10⁻⁶ cm/s.

For the origin of these results see patent publication US9221867B2, “Method for transporting a compound across the blood-brain barrier” (Angiochem Inc., priority 2003, dated 2015).
